Assay results from the supplement of paper PMC5998384.

Legend:
HeLa Kyoto [1] = experiment: solubility in G1/S (NP-40 vs SDS abundance) (log2 ratio); higher = more soluble; settings: cell cycle stage: G1/S
HeLa Kyoto [2] = experiment: melting temperature (median over replicates), in situ; higher = more thermally stable
HeLa Kyoto [3] = experiment: solubility change mitosis vs G1/S (difference of NP-40 vs SDS log2 ratios) (log2 ratio difference); higher = more soluble in mitosis
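For melting temperature (median over replicates), in situ in this document: HeLa Kyoto cells synchronized by double thymidine or nocodazole block, proteins quantified by TMT10plex mass spectrometry, three independent biological replicates.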
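For solubility change mitosis vs G1/S (difference of NP-40 vs SDS log2 ratios) in this document: synchronized HeLa Kyoto cells (double thymidine block for G1/S, nocodazole release for mitosis), protein amounts in NP-40 versus SDS lysates quantified by mass spectrometry, three biological replicates.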
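For solubility in G1/S (NP-40 vs SDS abundance) in this document: HeLa Kyoto cells arrested at G1/S by double thymidine block, proteins quantified by TMT10plex mass spectrometry in mild NP-40 versus SDS extracts, three biological replicates.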

Sequence | solubility in G1/S (log2) (HeLa Kyoto [1]) | melting temperature (HeLa Kyoto [2]; cell cycle stage: G1/S) | melting temperature (HeLa Kyoto [2]; cell cycle stage: mitosis) | solubility change mitosis (log2) (HeLa Kyoto [3])
MAVAIAAARVWRLNRGLSQAALLLLRQPGARGLARSHPPRQQQQFSSLDDKPQFPGASAEFIDKLEFIQPNVISGIPIYRVMDRQGQIINPSEDPHLPKEKVLKLYKSMTLLNTMDRILYESQRQGRISFYMTNYGEEGTHVGSAAALDNTDLVFGQYREAGVLMYRDYPLELFMAQCYGNISDLGKGRQMPVHYGCKERHFVTISSPLATQIPQAVGAAYAAKRANANRVVICYFGEGAASEGDAHAGFNFAATLECPIIFFCRNNGYAISTPTSEQYRGDGIAARGPGYGIMSIRVDGNDVFAVYNATKEARRRAVAENQPFLIEAMTYRIGHHSTSDDSSAYRSVDEVNYWDKQDHPISRLRHYLLSQGWWDEEQEKAWRKQSRRKVMEAFEQAERKPKPNPNLLFSDVYQEMPAQLRKQQESLARHLQTYGEHYPLDHFDK [BCKDHA] | 0.0962 | 52.2 °C | 52.2 °C | -0.0598
MRCCHICKLPGRVMGIRVLRLSLVVILVLLLVAGALTALLPSVKEDKMLMLRREIKSQGKSTMDSFTLIMQTYNRTDLLLKLLNHYQAVPNLHKVIVVWNNIGEKAPDELWNSLGPHPIPVIFKQQTANRMRNRLQVFPELETNAVLMVDDDTLISTPDLVFAFSVWQQFPDQIVGFVPRKHVSTSSGIYSYGSFEMQAPGSGNGDQYSMVLIGASFFNSKYLELFQRQPAAVHALIDDTQNCDDIAMNFIIAKHIGKTSGIFVKPVNMDNLEKETNSGYSGMWHRAEHALQRSYCINKLVNIYDSMPLRYSNIMISQFGFPYANYKRKI [EXTL2] | 0.132 | 56.7 °C | 58.5 °C | -0.23
METPGASASSLLLPAASRPPRKREAGEAGAATSKQRVLDEEEYIEGLQTVIQRDFFPDVEKLQAQKEYLEAEENGDLERMRQIAIKFGSALGKMSREPPPPYVTPATFETPEVHAGTGVVGNKPRPRGRGLEDGEAGEEEEKEPLPSLDVFLSRYTSEDNASFQEIMEVAKERSRARHAWLYQAEEEFEKRQKDNLELPSAEHQAIESSQASVETWKYKAKNSLMYYPEGVPDEEQLFKKPRQVVHKNTRFLRDPFSQALSRCQLQQAAALNAQHKQGKVGPDGKELIPQESPRVGGFGFVATPSPAPGVNESPMMTWGEVENTPLRVEGSETPYVDRTPGPAFKILEPGRRERLGLKMANEAAAKNRAKKQEALRRVTENLASLTPKGLSPAMSPALQRLVSRTASKYTDRALRASYTPSPARSTHLKTPASGLQTPTSTPAPGSATRTPLTQDPASITDNLLQLPARRKASDFF [DGCR14] | 0.334 | 50 °C | 52.4 °C | 0.458
MSLVIRNLQRVIPIRRAPLRSKIEIVRRILGVQKFDLGIICVDNKNIQHINRIYRDRNVPTDVLSFPFHEHLKAGEFPQPDFPDDYNLGDIFLGVEYIFHQCKENEDYNDVLTVTATHGLCHLLGFTHGTEAEWQQMFQKEKAVLDELGRRTGTRLQPLTRGLFGGS [YBEY] | -0.21 | 45.4 °C | 49.7 °C | 0.0965
MAAQLLEEKLTCAICLGLYQDPVTLPCGHNFCGACIRDWWDRCGKACPECREPFPDGAELRRNVALSGVLEVVRAGPARDPGPDPGPGPDPAARCPRHGRPLELFCRTEGRCVCSVCTVRECRLHERALLDAERLKREAQLRASLEVTQQQATQAEGQLLELRKQSSQIQNSACILASWVSGKFSSLLQALEIQHTTALRSIEVAKTQALAQARDEEQRLRVHLEAVARHGCRIRELLEQVDEQTFLQESQLLQPPGPLGPLTPLQWDEDQQLGDLKQLLSRLCGLLLEEGSHPGAPAKPVDLAPVEAPGPLAPVPSTVCPLRRKLWQNYRNLTFDPVSANRHFYLSRQDQQVKHCRQSRGPGGPGSFELWQVQCAQSFQAGHHYWEVRASDHSVTLGVSYPQLPRCRLGPHTDNIGRGPCSWGLCVQEDSLQAWHNGEAQRLPGVSGRLLGMDLDLASGCLTFYSLEPQTQPLYTFHALFNQPLTPVFWLLEGRTLTLCHQPGAVFPLGPQEEVLS [TRIM65] | -0.0459 | 49.2 °C | 49.3 °C | -0.0816
MALAGCPDSFLHHPYYQDKVEQTPRSQQDPAGPGLPAQSDRLANHQEDDVDLEALVNDMNASLESLYSACSMQSDTVPLLQNGQHARSQPRASGPPRSIQPQVSPRQRVQRSQPVHILAVRRLQEEDQQFRTSSLPAIPNPFPELCGPGSPPVLTPGSLPPSQAAAKQDVKVFSEDGTSKVVEILADMTARDLCQLLVYKSHCVDDNSWTLVEHHPHLGLERCLEDHELVVQVESTMASESKFLFRKNYAKYEFFKNPMNFFPEQMVTWCQQSNGSQTQLLQNFLNSSSCPEIQGFLHVKELGKKSWKKLYVCLRRSGLYCSTKGTSKEPRHLQLLADLEDSNIFSLIAGRKQYNAPTDHGLCIKPNKVRNETKELRLLCAEDEQTRTCWMTAFRLLKYGMLLYQNYRIPQQRKALLSPFSTPVRSVSENSLVAMDFSGQTGRVIENPAEAQSAALEEGHAWRKRSTRMNILGSQSPLHPSTLSTVIHRTQHWFHGRISREESHRIIKQQGLVDGLFLLRDSQSNPKAFVLTLCHHQKIKNFQILPCEDDGQTFFSLDDGNTKFSDLIQLVDFYQLNKGVLPCKLKHHCIRVAL [GRB10] | 0.159 | 48.1 °C | 49.1 °C | -0.231
